From US20260078416A1, “ORTHOGONAL METABOLIC FRAMEWORK FOR ONE-CARBON UTILIZATION” (Mojia Biotech Pte. Ltd., priority 2021, published 2026) come the findings set out here.

The assay deals with formaldehyde. The assay is described as follows: Cell-free prototyping of the α-reduction FORCE pathway with E. coli cell extracts. In kind it is biochemical. Particulars: 50 mM formaldehyde. An excerpt: A cell-free metabolic engineering approach was used to further prototype the FORCE pathways for product synthesis. […] As shown in FIG. 2 (in the formyl-CoA elongation panel), outside of the direct generation of 2-hydroxycarboxylates (e.g. glycolate) via thioester cleavage of the 2-hydroxyacyl-CoA generated by HACL, other C2 products, (including the aldose or aldehyde elongation pathways) require reduction of this 2-hydroxyacyl-CoA (glycolyl-CoA in the case of formaldehyde and formyl-CoA ligation). Listeria monocytogenes ACR (LmACR) are also able to act upon glycolaldehyde. […] With the inclusion of the previously identified HACL from Rhodospirillales bacterium URHD0017 (RuHACL), glycolate was observed.
Upon further addition of E. coli cell extract expressing diol dehydratase (DDR) from Klebsiella oxytoca, along with coenzyme B12, ethanol was detected (1.90±0.03 mM at one hour: FIG. 5b), likely due to the reduction of acetaldehyde by endogenous oxidoreductases, along with a corresponding decrease in ethylene glycol. […]
Enzyme expression and cell extract preparation was performed as described previously. […] Samples were centrifuged at 20817×g for 15 minutes and the supernatant analyzed by HPLC as described previously.

B1: E. coli FucO: E. coli 1,2-diol oxidoreductase, added as cell extract (protein, UniProt P0A9S1 1-382, looked up)
Lactaldehyde reductase: MANRMILNETAWFGRGAVGALTDEVKRRGYQKALIVTDKTLVQCGVVAKVTDKMDAAGLAWAIYDGVVPNPTITVVKEGLGVFQNSGADYLIAIGGGSPQDTCKAIGIISNNPEFADVRSLEGLSPTNKPSVPILAIPTTAGTAAEVTINYVITDEEKRRKFVCVDPHDIPQVAFIDADMMDGMPPALKAATGVDALTHAIEGYITRGAWALTDALHIKAIEIIAGALRGSVAGDKDAGEEMALGQYVAGMGFSNVGLGLVHGMAHPLGAFYNTPHGVANAILLPHVMRYNADFTGEKYRDIARVMGVKVEGMSLEEARNAAVEAVFALNRDVGIPPHLRDVGVRKEDIPALAQAALDDVCTGGNPREATLEDIVELYHTAW
modifications: added as cell extract
notes: E. coli 1,2-diol oxidoreductase, added as cell extract
As for B1, the ethylene glycol synthesis (extract added to LmACR and RuHACL extracts) worked out at 2.73 ± 0.03 mM. In addition, the “increase in ethylene glycol” value (vs without the added extract) is reported as 2 fold.
